Consider 3 molecules from patent publication US20240122981A1 (University of Pennsylvania, published 2024).

Test [1] concerns the target T1, CC chemokine receptor 4 (CCR4) (human, UniProt P51679 1-360).
T1 construct: whole, on cells; No recombinant CCR4 was used; also called CD194
T1 sequence (looked up): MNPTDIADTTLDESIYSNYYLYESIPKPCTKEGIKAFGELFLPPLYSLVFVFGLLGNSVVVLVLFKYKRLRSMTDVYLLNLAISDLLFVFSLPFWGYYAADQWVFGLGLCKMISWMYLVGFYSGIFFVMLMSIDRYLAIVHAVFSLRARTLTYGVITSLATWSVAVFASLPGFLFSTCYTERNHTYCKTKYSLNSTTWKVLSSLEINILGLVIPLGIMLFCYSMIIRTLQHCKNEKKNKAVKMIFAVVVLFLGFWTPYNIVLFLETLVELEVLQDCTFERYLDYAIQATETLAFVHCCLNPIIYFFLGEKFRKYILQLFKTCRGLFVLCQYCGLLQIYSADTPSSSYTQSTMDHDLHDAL
Nature of the test: flow cytometry on HH cells transduced with the CAR; loss of staining by the parent mAb. On the technique in general: Flow cytometry measures light scatter and fluorescence of single cells or particles in a stream.

Test [2] concerns the target T1, CC chemokine receptor 4 (CCR4). Nature of the test: flow cytometry on HH cells, KW-0761 conjugated to Ax680. The procedure:
CCR4 was analyzed by FCM.
Dead cells were gated out by staining with violet amine-reactive viability dye, LIVE-DEAD violet (Invitrogen). Intracellular staining was performed using the Foxp3/Transcription Factor Staining Kit (Affymetrix) per the manufacturer's instructions. CCR4-CAR and CD19-CAR expression were detected by biotinylated antihuman Fab antibody and anti-mouse Fab antibody (Jackson ImmunoResearch), respectively. […] Data were collected either by a Fortessa LSRII or LSR II cytometer (BD Biosciences) and analyzed using FlowJo version 10 software (Tree Star).

For test [3] the target is unchanged. Put plainly: flow cytometry on HH cells transduced with the CAR; reduced staining by the parent mAb.

B1: CCR4(h1567_L2H)-CAR (other)
chain: DIVMTQSPDSLAVSLGERATINCKSSQSILYSSNQKNYLAWYQQKPGQSPKLLIYWASTRESGVPDRFSGSGSGTDFTLTISSLQAEDVAVYYCHQYLSSYTFGQGTKLEIKGGGGSGGGGSGGGGSGGGGSQVQLVQSGAEVKKPGASVKVSCKASGYTFASYYMHWMRQAPGQGLEWIGWINPGNVNTKYNEKFKGRATLTVDTSTNTAYMELSSLRSEDTAVYYCARSTYYRPLDYWGQGTLVTVSS
notes: Chimeric antigen receptor on the surface of transduced HH cells or primary T cells; also called CCR4-CAR(h1567_L2H); not shown: second-generation CAR backbone (CD8 hinge and transmembrane, 4-1BB, CD3 zeta); the fu
For B1, the binding result in test [1] was “binds”.

B2: anti-CCR4 monoclonal antibody clone KW-0761 (mogamulizumab) (antibody, V domains shown)
VH: EVQLVESGGDLVQPGRSLRLSCAASGFIFSNYGMSWVRQAPGKGLEWVATISSASTYSYYPDSVKGRFTISRDNAKNSLYLQMNSLRVEDTALYYCGRHSDGNFAFGYWGQGTLVTVSS
VL: DVLMTQSPLSLPVTPGEPASISCRSSRNIVHINGDTYLEWYLQKPGQSPQLLIYKVSNRFSGVPDRFSGSGSGTDFTLKISRVEAEDVGVYYCFQGSLLPWTFGQGTKVEIK
notes: also called anti-CCR4 clone KW monoclonal antibody
Consider B2, for which the binding result in test [2] is “binds”.

B3: CCR4(KW_L2H)-CAR (other)
chain: GSDVLMTQSPLSLPVTPGEPASISCRSSRNIVHINGDTYLEWYLQKPGQSPQLLIYKVSNRFSGVPDRFSGSGSGTDFTLKISRVEAEDVGVYYCFQGSLLPWTFGQGTKVEIKGGGGSGGGGSGGGGSGGGGSEVQLVESGGDLVQPGRSLRLSCAASGFIFSNYGMSWVRQAPGKGLEWVATISSASTYSYYPDSVKGRFTISRDNAKNSLYLQMNSLRVEDTALYYCGRHSDGNFAFGYWGQGTLVTVSSSGTTTPAPRPPTPAPTIASQPLSLRPEACRPAAGGAVHTRGLDFACDIYIWAPLAGTCGVLLLSLVITLYCKRGRKKLLYIFKQPFMRPVQTTQEEDGCSCRFPEEEEGGCELRVKFSRSADAPAYKQGQNQLYNELNLGRREEYDVLDKRRGRDPEMGGKPRRKNPQEGLYNELQKDKMAEAYSEIGMKGERRRGKGHDGLYQGLSTATKDTYDALHMQALPPR
notes: Chimeric antigen receptor on the surface of transduced HH cells or primary T cells
With B3, the binding result in test [3] was “binds”.
